Article PMC11665613

Molecular target: MPP8 (M-phase phosphoprotein 8) (UniProt Q99549)
Assay: cross-linking; photo-crosslinking under UV-B irradiation of recombinant reader (3 or 10 uM CBX1, 5 uM BPTF, 3 uM MPP8) with sulfonium peptide (100 uM or various concentrations), 3 to 20 min; conjugates quantified by HR-MS

MPP8 (M-phase phosphoprotein 8), sequence (Q99549 whole entry): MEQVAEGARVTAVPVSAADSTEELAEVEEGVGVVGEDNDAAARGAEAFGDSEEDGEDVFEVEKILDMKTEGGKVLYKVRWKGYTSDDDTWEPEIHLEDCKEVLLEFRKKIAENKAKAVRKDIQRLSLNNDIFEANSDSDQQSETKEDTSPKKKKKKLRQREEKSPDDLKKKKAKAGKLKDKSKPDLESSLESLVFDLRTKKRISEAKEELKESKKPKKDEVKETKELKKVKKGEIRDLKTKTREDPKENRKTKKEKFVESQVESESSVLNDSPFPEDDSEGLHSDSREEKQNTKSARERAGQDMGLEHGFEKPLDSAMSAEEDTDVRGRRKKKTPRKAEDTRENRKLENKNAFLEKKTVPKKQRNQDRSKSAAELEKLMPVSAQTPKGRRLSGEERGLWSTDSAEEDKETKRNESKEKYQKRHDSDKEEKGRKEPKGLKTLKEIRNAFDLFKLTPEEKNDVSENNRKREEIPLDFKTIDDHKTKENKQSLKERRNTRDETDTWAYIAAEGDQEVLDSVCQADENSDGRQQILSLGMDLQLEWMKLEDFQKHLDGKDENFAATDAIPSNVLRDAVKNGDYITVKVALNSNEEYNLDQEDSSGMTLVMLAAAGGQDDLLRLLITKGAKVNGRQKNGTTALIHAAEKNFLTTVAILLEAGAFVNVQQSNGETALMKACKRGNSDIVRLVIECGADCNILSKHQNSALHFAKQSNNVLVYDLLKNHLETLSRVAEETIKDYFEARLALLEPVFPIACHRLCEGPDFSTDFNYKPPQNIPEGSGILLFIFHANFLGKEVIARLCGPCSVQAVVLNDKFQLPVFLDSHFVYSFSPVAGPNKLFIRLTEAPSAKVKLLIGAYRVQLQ

fold increase of the peptidyl conjugate yield against H3K9NleS+me2: > 3 fold
Substance: H3K9NleCTMS peptide (histone H3 peptide, cysteine at position 9 alkylated to cyclic tetramethylene sulfonium)
